Assay results from patent US20090099029.

Each substance was assayed against Bovine, dephosphorylated, Myelin Basic Protein (MBP) (UniProt P02687).
Sequence of Bovine, dephosphorylated, Myelin Basic Protein (MBP) (P02687 whole entry): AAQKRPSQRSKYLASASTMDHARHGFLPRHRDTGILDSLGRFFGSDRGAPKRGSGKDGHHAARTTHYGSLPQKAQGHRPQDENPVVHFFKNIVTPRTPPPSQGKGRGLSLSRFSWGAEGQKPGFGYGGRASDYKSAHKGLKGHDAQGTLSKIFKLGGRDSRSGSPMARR

Sequence of WEE1 (chain, as listed by the source): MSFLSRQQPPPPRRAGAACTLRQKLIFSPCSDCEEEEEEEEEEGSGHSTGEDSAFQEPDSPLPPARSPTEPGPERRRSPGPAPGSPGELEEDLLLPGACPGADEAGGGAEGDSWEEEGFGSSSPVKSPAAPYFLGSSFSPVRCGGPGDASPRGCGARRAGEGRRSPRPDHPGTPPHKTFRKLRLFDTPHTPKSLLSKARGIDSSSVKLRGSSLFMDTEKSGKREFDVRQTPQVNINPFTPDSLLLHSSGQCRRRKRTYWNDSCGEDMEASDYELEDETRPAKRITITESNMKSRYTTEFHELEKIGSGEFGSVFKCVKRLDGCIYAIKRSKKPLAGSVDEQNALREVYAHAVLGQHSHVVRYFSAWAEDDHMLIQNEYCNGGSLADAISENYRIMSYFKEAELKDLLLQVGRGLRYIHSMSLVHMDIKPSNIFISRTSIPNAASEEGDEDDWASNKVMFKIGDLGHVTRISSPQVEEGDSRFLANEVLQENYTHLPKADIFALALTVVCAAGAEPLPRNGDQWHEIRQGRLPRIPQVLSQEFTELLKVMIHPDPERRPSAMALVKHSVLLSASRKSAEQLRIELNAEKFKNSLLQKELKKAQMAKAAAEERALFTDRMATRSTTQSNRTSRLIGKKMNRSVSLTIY
Sequence of PIM2 (chain, as listed by the source): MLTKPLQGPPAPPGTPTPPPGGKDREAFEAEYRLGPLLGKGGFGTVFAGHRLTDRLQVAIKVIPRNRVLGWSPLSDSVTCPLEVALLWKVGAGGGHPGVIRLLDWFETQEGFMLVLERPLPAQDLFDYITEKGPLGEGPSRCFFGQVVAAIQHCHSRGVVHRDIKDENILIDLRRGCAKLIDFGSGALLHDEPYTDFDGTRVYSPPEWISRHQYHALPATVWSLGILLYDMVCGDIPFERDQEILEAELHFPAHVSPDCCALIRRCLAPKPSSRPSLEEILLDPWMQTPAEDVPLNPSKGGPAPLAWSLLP
Sequence of NTRK2 (chain, as listed by the source): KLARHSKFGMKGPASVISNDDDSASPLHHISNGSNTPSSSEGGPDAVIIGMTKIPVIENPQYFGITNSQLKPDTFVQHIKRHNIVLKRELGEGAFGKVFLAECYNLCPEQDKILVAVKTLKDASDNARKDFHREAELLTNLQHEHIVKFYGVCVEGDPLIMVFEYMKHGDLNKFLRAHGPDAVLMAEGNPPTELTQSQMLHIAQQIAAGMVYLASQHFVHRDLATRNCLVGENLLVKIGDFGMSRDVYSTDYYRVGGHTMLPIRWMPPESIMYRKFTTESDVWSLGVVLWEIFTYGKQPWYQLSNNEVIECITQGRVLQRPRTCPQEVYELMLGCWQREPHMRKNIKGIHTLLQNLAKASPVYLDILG
Sequence of CSNK1G1(CK1gamma1) (chain, as listed by the source): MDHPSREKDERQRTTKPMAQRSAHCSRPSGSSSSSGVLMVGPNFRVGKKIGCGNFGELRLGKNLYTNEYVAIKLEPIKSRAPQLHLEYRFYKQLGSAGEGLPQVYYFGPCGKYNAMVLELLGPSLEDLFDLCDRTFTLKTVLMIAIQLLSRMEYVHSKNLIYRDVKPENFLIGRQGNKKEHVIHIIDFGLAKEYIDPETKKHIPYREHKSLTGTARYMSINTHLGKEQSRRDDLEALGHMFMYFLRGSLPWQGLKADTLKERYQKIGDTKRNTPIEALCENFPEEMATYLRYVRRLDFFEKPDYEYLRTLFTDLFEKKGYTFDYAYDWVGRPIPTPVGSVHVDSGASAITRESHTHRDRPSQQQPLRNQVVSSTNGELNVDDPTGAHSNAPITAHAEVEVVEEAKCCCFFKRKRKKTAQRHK
Sequence of MST4 (chain, as listed by the source): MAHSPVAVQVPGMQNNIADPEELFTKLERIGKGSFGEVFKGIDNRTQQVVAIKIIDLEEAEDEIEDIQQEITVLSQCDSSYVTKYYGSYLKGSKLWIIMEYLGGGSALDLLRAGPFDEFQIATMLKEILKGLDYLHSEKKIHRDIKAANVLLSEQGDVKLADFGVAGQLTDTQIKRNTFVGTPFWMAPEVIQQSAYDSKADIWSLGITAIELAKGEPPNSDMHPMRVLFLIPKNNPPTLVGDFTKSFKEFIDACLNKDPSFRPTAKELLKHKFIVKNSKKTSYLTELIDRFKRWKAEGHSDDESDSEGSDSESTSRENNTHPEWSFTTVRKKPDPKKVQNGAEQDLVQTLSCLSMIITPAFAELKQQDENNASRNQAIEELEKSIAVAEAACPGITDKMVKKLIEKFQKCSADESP
Sequence of YES1 (chain, as listed by the source): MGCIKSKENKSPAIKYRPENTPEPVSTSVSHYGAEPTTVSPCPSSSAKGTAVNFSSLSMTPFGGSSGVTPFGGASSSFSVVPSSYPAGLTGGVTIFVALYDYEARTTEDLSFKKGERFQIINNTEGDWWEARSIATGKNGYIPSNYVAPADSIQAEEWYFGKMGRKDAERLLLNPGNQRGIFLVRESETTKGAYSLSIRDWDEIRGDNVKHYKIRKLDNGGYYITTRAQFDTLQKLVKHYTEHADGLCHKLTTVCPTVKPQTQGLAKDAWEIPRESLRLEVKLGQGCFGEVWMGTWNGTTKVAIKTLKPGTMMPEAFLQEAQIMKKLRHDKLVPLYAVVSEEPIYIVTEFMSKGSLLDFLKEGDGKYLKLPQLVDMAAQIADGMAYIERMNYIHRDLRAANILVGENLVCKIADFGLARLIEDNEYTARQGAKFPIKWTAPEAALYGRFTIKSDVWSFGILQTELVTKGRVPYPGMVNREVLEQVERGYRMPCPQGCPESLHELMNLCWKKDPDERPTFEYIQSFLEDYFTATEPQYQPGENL
Sequence of PHKG1 (chain, as listed by the source): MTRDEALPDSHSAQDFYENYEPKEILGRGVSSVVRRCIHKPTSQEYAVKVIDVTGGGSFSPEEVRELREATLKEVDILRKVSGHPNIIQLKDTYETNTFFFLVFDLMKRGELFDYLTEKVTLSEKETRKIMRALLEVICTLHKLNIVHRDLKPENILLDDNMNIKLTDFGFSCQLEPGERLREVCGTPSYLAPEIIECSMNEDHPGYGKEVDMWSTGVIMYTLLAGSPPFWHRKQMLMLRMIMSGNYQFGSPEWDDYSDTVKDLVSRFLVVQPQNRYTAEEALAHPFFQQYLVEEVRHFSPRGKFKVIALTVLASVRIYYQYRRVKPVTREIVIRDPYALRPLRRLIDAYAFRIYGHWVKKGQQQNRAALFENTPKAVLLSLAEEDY
Sequence of NEK6 (chain, as listed by the source): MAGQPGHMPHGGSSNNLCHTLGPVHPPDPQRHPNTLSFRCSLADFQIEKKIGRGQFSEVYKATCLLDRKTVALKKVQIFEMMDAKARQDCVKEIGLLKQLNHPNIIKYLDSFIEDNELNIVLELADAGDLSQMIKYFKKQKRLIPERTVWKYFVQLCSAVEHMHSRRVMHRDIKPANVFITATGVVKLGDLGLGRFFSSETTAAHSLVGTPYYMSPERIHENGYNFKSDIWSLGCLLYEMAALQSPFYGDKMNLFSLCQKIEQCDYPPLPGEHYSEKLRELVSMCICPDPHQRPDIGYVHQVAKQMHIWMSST
Sequence of NEK7 (chain, as listed by the source): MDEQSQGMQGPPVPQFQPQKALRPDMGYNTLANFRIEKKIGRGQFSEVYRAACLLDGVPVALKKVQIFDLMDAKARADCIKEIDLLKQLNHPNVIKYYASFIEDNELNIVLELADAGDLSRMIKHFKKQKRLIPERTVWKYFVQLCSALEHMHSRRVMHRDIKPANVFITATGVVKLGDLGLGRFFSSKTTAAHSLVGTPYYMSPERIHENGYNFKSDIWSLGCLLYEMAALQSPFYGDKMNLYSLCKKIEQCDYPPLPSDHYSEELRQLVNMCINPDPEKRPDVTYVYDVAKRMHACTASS
Sequence of STK24(MST3) (chain, as listed by the source): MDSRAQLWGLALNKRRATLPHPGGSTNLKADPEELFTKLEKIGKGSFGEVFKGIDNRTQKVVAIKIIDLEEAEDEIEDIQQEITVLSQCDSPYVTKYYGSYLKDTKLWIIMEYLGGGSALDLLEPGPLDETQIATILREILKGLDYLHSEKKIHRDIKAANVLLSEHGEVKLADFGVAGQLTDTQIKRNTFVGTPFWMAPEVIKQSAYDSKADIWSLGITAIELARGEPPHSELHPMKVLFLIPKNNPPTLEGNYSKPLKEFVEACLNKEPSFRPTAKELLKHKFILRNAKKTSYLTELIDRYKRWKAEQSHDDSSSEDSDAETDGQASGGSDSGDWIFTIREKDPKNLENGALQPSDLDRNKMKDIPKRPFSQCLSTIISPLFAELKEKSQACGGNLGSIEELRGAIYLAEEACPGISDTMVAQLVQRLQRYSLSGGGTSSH
Sequence of CLK1 (chain, as listed by the source): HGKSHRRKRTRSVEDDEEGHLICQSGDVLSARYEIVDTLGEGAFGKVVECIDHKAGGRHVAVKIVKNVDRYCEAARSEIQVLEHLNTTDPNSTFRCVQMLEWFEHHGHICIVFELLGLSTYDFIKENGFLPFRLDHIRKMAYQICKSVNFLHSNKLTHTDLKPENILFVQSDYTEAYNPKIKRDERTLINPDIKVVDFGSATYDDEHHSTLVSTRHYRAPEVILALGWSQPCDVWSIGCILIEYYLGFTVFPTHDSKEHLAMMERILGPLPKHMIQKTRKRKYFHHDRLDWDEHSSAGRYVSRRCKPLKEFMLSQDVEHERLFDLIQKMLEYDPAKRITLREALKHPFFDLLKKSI

Substance | MBP Kinase Activity
ADRBK2(GRK3) | Negative
AKT1 | Strong
BLK | Weak
CDK1/cyclin B | Strong
CLK1 | Strong
CLK3 | Strong
CLK4 | Negative
CSNK1G1(CK1gamma1) | Negative
CSNK1G2 | Negative
CSNK1G3 | Weak
EGFR | Negative
EPHA7 | Weak
FGR | Weak
FYN | Strong
MAP4K5(KHS1) | Negative
MLCK | Negative
MST4 | Negative
NEK6 | Negative

Substance | MBP Kinase Activity
NEK7 | Negative
NTRK1 | Strong
NTRK2 | Strong
NTRK3 | Strong
PHKG1 | Negative
PIM1 | Strong
PIM2 | Weak
PKN1(PRK1) | Strong
PRKCB1 | Strong
PRKCD | Strong
PRKCG | Strong
SGK | Strong
SGKL(SGK3) | Weak
STK24(MST3) | Weak
STK25(YSK1) | Strong
WEE1 | Negative
YES1 | Weak
